Assay results: article PMC9005503

Biological target: T1, FZD3 (human (endogenous in hESC-derived EPs)) (UniProt Q9NPG1)
T1 sequence: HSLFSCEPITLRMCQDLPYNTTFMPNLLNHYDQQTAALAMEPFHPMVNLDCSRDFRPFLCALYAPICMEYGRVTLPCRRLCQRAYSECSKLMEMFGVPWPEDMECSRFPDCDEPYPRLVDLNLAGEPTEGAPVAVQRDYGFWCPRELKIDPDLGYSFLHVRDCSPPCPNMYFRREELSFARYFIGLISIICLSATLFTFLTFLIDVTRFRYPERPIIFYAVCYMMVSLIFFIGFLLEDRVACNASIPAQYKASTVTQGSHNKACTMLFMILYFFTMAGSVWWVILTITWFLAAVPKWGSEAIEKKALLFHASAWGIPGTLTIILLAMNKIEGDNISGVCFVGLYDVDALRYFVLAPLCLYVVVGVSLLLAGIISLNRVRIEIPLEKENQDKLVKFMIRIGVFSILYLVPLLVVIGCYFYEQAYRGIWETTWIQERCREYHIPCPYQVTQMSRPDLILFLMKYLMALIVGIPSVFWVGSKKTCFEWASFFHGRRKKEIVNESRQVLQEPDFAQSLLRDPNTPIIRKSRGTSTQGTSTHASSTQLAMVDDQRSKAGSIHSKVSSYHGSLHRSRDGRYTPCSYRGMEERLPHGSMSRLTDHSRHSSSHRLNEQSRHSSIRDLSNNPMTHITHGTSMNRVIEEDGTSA

B1: WNT5A recombinant protein (ligand)
chain: IIGAQPLCSQLAGLSQGQKKLCHLYQDHMQYIGEGAKTGIKECQYQFRHRRWNCSTVDNTSVFGRVMQIGSRETAFTYAVSAAGVVNAMSRACREGELSTCGCSRAARPKDLPRDWLWGGCGDNIDYGYRFAKEFVDARERERIHAKGSYESARILMNLHNNEAGRRTVYNLADVACKCHGVSGSCSLKTCWLQLADFRKVGDALKEKYDSAAAMRLNSRGKLVQVNSRFNSPTTQDLVYIDPSPDYCVRNESTGSLGTQGRLCNKTSEGMDGCELMCCGRGYDQFKTVQTERCHCKFHWCCYVKCKKCTEIVDQFVCK
**Q.** Which INS+ cell number (immunofluorescence, day 3) of hESC-derived EPs treated with WNT5A and FZD3-neutralizing antibodies, compared to WNT5A treated EPs does the source give for B1 here?
**A.** Its INS+ cell number (immunofluorescence, day 3) of hESC-derived EPs treated with WNT5A and FZD3-neutralizing antibodies, compared to WNT5A treated EPs is 2.5 fold.
